Assay results: paper PMC5609902 (Oncotarget, 2017)

Tests used:
JRFL rgp120 [1] = biological target: T1, JRFL rgp120 (HIV-1 JRFL (clade B), UniProt Q75760, strain); assay: cell-based or functional assay
[2] = biological target: Env glycoprotein (gp160) of HIV-1 NL4-3, wild type (HIV-1 NL4-3 (clade B), UniProt Q6BC06, strain); assay: cell-based or functional assay
rgp120 (R2) = biological target: T2, rgp120 (R2) (HIV-1 R2); assay: ELISA; direct ELISA; 1 μg/ml rgp120 or rgp140 coated in 0.1 M carbonate buffer pH 9.6, 4°C overnight; antibody 1 h at 37°C; detected with HRP goat anti-human IgG; conditions: both partners purified
T2 construct: gp120, the surface subunit of the Env glycoprotein, HIV-1 isolate R2; recombinant; also called native rgp120; coated rgp120; source: bought: Immune Technology Corp or Enzyme LLC

CN54 rgp120 = biological target: T3, CN54 rgp120 (HIV-1 isolate CN54 (97CN54), CRF07_BC, UniProt Q994N8, strain); assay: SPR; BIACORE T200; rgp120 immobilised on CM5 chip by amine coupling (20 μg/ml); antibody in two-fold dilutions injected at 30 μl/min for 3 min; 1:1 Langmuir model, global fit; conditions: both partners purified
T3 construct: gp120, the surface subunit of the Env glycoprotein, HIV-1 isolate CN54 (CRF07_BC); recombinant; also called CRF07_BC (CN54)-derived rgp120; CN54 gp120; source: bought: Immune Technology Corp or Enzyme LLC

JRFL rgp120 [3] = biological target: T1, JRFL rgp120; assay: as above; conditions: both partners purified

B1: Y498 IgG1 (antibody, V domains shown)
VH: KVQLVQSGTELKKPGASGKVSCKASGYTFNSNGLNWVRQAPGQGLEWVGWISGHSDETKHAQNFQGRLTLTTDTSTNTAYMELRSLRSDDTAVYYCARSLLRSLERLMGGTDAFDIWGQGTLVTVSS
VL: not shown
notes: as the VH of m1; as the VL of m1; Full-length IgG1, kappa light chain, made by recloning the Fab chains in the pDR12 vector; also called whole Y498 IgG1; source: 293T, transient transfection, purified from the culture medium (protein A/G sepharose)
In the case of B1, the “neutralisation of the pseudovirus with JRFL Env (Env on the virus, not the rgp120), single cycle infection of TZM-bl cells, IC50” value (JRFL rgp120 [1]) is reported as greater than 50 µg/mL, the “neutralisation of the pseudovirus with NL4-3 Env, single cycle infection of TZM-bl cells, IC50” value [2] is reported as 0.61 µg/mL and the binding result (rgp120 (R2)) is reported as “binds”. It also gave a Kd (CN54 rgp120) of 0.46 nM and a Kd (JRFL rgp120 [3]) of 0.86 nM.
